Laboratory results published in paper doi:10.1101/212704 (bioRxiv, 2017).

B4: GST-MAD1-NTD (domain or fragment, human, UniProt Q9Y6D9 1-485, looked up)
chain: MEDLGENTMVLSTLRSLNNFISQRVEGGSGLDISTSAPGSLQMQYQQSMQLEERAEQIRSKSHLIQVEREKMQMELSHKRARVELERAASTSARNYEREVDRNQELLTRIRQLQEREAGAEEKMQEQLERNRQCQQNLDAASKRLREKEDSLAQAGETINALKGRISELQWSVMDQEMRVKRLESEKQELQEQLDLQHKKCQEANQKIQELQASQEARADHEQQIKDLEQKLSLQEQDAAIVKNMKSELVRLPRLERELKQLREESAHLREMRETNGLLQEELEGLQRKLGRQEKMQETLVGLELENERLLAKLQSWERLDQTMGLSIRTPEDLSRFVVELQQRELALKDKNSAVTSSARGLEKARQQLQEELRQVSGQLLEERKKRETHEALARRLQKRVLLLTKERDGMRAILGSYDSELTPAEYSPQLTRRMREAEDMVQKVHSHSAEMEAQLSQALEELGGQKQRADMLEMELKMLKSQSS

Columns and labels:
Assay in all cases: pull-down
[1] = target: 6×His-tagged wild type MAD2 (UniProt Q13257 2-205)
untagged MAD2^L13A = untagged MAD2^L13A (UniProt Q13257 2-205, L13A)
GST-MAD1-NTD = target: B4
His-tagged MPS1 = target: T1, His-tagged MPS1 (UniProt P33981 1-857)
T1 sequence (looked up): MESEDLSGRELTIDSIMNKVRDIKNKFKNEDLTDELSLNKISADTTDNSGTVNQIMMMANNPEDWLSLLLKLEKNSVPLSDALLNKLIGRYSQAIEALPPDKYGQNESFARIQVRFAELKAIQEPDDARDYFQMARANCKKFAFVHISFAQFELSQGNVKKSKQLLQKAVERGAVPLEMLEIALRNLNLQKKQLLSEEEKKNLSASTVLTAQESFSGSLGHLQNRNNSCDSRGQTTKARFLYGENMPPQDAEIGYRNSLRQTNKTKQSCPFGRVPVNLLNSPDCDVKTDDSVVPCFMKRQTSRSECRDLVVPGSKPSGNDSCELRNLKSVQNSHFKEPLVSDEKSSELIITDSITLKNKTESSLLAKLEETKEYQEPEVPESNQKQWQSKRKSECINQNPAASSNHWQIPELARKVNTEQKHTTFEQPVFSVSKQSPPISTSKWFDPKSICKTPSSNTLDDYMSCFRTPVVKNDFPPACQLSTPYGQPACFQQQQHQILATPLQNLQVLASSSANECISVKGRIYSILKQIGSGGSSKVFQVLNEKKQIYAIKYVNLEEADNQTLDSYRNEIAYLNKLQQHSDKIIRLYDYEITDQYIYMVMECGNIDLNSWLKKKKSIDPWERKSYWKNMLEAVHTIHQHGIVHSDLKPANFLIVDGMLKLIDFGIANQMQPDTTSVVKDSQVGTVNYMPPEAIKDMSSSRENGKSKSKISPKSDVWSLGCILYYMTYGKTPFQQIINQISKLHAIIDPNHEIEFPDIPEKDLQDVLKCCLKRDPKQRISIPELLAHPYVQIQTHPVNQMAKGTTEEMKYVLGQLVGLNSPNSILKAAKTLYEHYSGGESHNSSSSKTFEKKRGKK

B1: GST-MAD1-MIM (domain or fragment, human, UniProt Q9Y6D9 485-584, looked up)
chain: SSAEQSFLFSREEADTLRLKVEELEGERSRLEEEKRMLEAQLERRALQGDYDQSRTKVLHMSLNPTSVARQRLREDHSQLQAECERLRGLLRAMERGGTV
binding result [1]: binds | binding result (untagged MAD2^L13A): binds

B2: GST-tagged MAD1-CTD globular subdomain (638-718 residues) (domain or fragment, human, UniProt Q9Y6D9 638-718, looked up)
chain: GYQIDITTENQYRLTSLYAEHPGDCLIFKATSPSGSKMQLLETEFSHTVGELIEVHLRRQDSIPAFLSSLTLELFSRQTVA
binding result (untagged MAD2^L13A): binds

B3: MAD2^LARQ (L13A/R133E/Q134A) (natural protein, UniProt Q13257 2-205, looked up)
chain: ALQLSREQGITARGSAEIVAEFFSFGINSILYQRGIYPSETFTRVQKYGLTLLVTTDLELIKYLNNVVEQLKDWLYKCSVQKLVVVISNIESGEVLERWQFDIECDKTAKDDSAPREKSQKAIQDEIRSVIEAITATVTFLPLLEVSCSFDLLIYTDKDLVVPEKWEESGPQFITNSEEVRLRSFTTTIHKVNSMVAYKIPVND
binding result (GST-MAD1-NTD): binds

B4
binding result (His-tagged MPS1): binds
